In the data set the target is NGAL (neutrophil gelatinase-associated lipocalin) (UniProt P80188 24-198, C107S). Briefly: dipstick lateral-flow sandwich assay.
NGAL (neutrophil gelatinase-associated lipocalin), sequence (P80188 24-198 C107S): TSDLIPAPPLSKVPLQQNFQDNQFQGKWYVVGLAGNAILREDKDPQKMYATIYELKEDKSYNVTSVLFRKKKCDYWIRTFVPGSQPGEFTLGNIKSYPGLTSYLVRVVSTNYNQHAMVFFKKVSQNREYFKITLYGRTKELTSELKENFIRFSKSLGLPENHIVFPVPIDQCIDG

B1: NGAL truncated aptamer, biotinylated (26-base) (ssDNA)
DNA: ATGGCGGAGCTGGATAGTATAGTCGG
Consider B1, for which the binding result is “binds”.

The record behind these values is PMC9601244.
